Measured values taken from the DeepSol protein solubility set.

Assay: soluble on expression in E. coli; label from the status in PepcDB or PDB records

| Sequence | soluble on expression in E. coli |
| --- | --- |
| LLSPPIALKPLDSSAKWRIIYWNPNGCDKTCLKQLNMLGRVRLSFGRKLYQVDEWLLLSNKDSLIAEELKPILKEQDIHVAALSLTEMSKLSTLYPEAKIFIANPDNYLILSYQPGCNPGDIYKDLKLLLNTTEIKSG | soluble |
| AYTTFSQTKNDQLKEPMFFGQPVNVARYDQQKYDIFEKLIEKQLSFFWRPEEVDVSRDRIDYQALPEHEKHIFISNLKYQTLLDSIQGRSPNVALLPLISIPELETWVETWAFSETIHSRSFTHIIRNIVNDPSVVFDDIVTNEQIQKRAEGISSYYDELIEMTSYWHLLGEGTHTVNGKTVTVSLRELKKKLYLCLMSVNALEAIRAYVSFACSFAFAERELMEGNAKIIRLIARDEALHLTGTQHMLNLLRSGADDPEMAEIAEECKQECYDLFVQAAQQEKDWADYLFRDGSMIGLNKDILCQYVEYITNIRMQAVGLDLPFQTRSNPIPWINTWLVSDNVQVAPQEVEVSSYLVGQIDSEVDTDDLSNFQL | soluble |
| MGSDKIHHHHHHMQQEQRILFKNDTGDYAAVAAGEESVLQAGLRQSVPLNYHCASGSCGSCKARLIQGALKVHTGTDFIQVSHTADQVCEYPEVHLCQSHAVSDCVFEALYDKNVPPDLVTPKHYAASLSDVRPLGSGLYRLLVDFDDSIRFLPGQYVMLATEAGGRARAYSVANFAQDSRQLEFILSCNPNGAMSPQLCDINNIGMQLQGYGPLGKAYIRPSKDKEIVMLVGGSGVSVALSTLEWAISSHYIDDRHLTIFWGVRDTSPIDLIGVLNRYAAVHSNLRVAVCSDISPSVQDRVRFPHIEFFTGYPADHIVNDASISWEGKEVYISGPPPMVDHTVRQLMINTEIDALDIKCDSFV | not soluble |
| MGSDKIHHHHHHMRYNCLYLIFKESRFVKIAIVANTSWNIYNFRLNLIHFFLAHKYEVVCIAPVDRHTEALTTLPVTFVPVEIDSKGNNPIKDARLVGKFLSIYKKHKPDVILQYTIKPNIYGTLAAKLCGIPTINTVTGLGTVFLHDTCITRLAQQLYAFSFKFATVAVFQNEDDRDIFVQKRIITHAKTQIIKGSGVNTTHFIPAKTYSKAFAFLMVARLLYDKGIREYAQAAKCLHEQHGNNVQCLLIGAIDSDKQLGINKEDVHAWANRHHLIYKPFDTAILKEYQQANVVVLPSYREGLSKSLLEAGACGKPLIASNVSGCKEIVIDNWNGYLCEAKDAGNLFDKMNLMLETSPEQLAEMGKNSRDFIEQNFSDKIISNDYFYLIKRVTESKKTNTNDIH | not soluble |
| MAHHHHHHMDPKEFVQRFPKSALSAKLVLSLEITEQRDFVVSLIDDAVYCDSWEAYFDFAERNNVAITEDVALAAVQAVGLDPLSAPLWVRAAACCESVESRKSLYEFGLSVPLHGWQRLFEEYRRCTDGHEDDHVLSETECWCVSNVLTAEKWPDRYAKLDTDTEAENVRQAWLELFACMLAGLASTAIARDLQLRRMELAMRQMCTQLPGDDSCWYQLALFQLCILEDAEAARKTVACGIAAAGSSFALENIASVADGVVGVSDSSGTSSADVLSATKALMQQRRAAEELALDGVTKDRVRALRSVGKAAAQQGLGDWKIFSQWRCAEDMAAHDTKMAAKVLENGMICCSHSPADALLLGSEAAQYHLLQRHEREALGYAEQQIEQQAELHHRGKILASWNSLVRIENLLGLSFSKAAKRRAELFPQNRISTFMENCRVGDYLPCDKSTFQWARFVEDYQVDKASVEETPFHGIAPPRNEAVAVKRLQQVECETPDDSQWEPFVPPLSCLPSREEENPDDVTGVRELRGKLVYRVKMDARTAARCQREKATRQRSMTGEKAVERGGALGALVRRVRPVNLTVGQTKRLQSVSADWVVHVLTVSELDLERTLKERAERQESHDMSV | not soluble |
| HYRRHSVESKLARAALDGMTAVMISDASLRIIMVNQEFENMMGYSTEQVKGSNAHSLILLPEDLEETLNIWNKLGRENVWEGEVRCRTQLNHVFTAIMRIQANLTKSGKISYYITSLVDISE | not soluble |
| MTGSVVVAGLGPGAQELITPEVSAALALATDIVGYAPYVARVAERDGLQRHASDNREELDRAGFALRLATEGRHVVIVSSGDPGVFAMAAALFEAIEAGDPSWRELDIRVLPGIS | not soluble |
| MSSGDQNRGGVADKALQLVLEMKRNPDVLPPYNTELVRQCYQKIDELFQKNAAVVEKIRAGLPHDSTLLQPRLAAMCHIRRCMMAYVNERKNRIRSFRWKYGGALPASVRNALCDAEIQFFNEYSSTLARFQSNLGEGGVNLLLHSAPPKSLFVQVRALEDYGEFETSDGTQVQLSKDSLHSLPRQDCEMLIRQGVLELVH | not soluble |
| MAVNGKTLIRRFNDYCPEWLAETGDPVGLHIGTLDKPIENVMVTLDVRPEVVAEAIEKQVDLIIAKHPPIFRPVKRLTTDNFQEKMYADLLKHDIAVYAAHTNMDIIDNGLNDWFCELLGIKQTTFLTKTHTVPYKKLAVFVPIDEAPQMREALGLAGAGSQGDYSKTSYSLIGTGRFTPTQGANPTIGEIGQESVVQEAKIEVIFPETKQEQVLAAMLQAHPYEEPAYDVYTIENQSKEFGLGRVGVLDKPVRFSYFVQQVKEAFQLDGLRVIAKDDTKMIQRVAICGGSGEKFYHDALRKQADVYITGDVYYHTAHDMIAEDLPVIDPGHYIEALCKPKLVELMNQWKQENEWAVSIFESEANTNPFRFK | not soluble |
| STSCVAEEPIKKIAIFGGTHGNELTGVFLVTHWLKNGAEVHRAGLEVKPFITNPRAVEKCTRYIDCDLNRVFDLENLSKEMSEDLPYEVRRAQEINHLFGPKNSDDAYDVVFDLHNTTSNMGCTLILGDSGNDFLIQMFHYIKTCMAPLPCSVYLIEHPSLKYATTRSIAKYPVGIEVGPQPHGVLRADILDQMRRMLKHALDFIQRFNEGKEFPPCAIDVYKIMEKVDYPRNESGDVAAVIHPNLQDQDWKPLHPGDPVFVSLDGKVIPLGGDCTVYPVFVNEAAYYEKKEAFAKTTKLTLNAKSIRSTLH | soluble |
| MNKLLPTSTAGSLPKPSWLAQPEKLWSPWKLQDEELTEGKQDALRLSLQEQQHAGIDIVSDGEQTRQHFVTTFIEHLSGVDFEKRETVRIRNRYDASVPTVVGAVSRPKPVFVDDAKFLRQQTRQPIKWALPGPMTMIDTLFDAHYKSREKLAWEFAKILNQEAKELEAAGVDIIQFDEPAFNVFFDEVNDWGVATLERAIEGLNCETAVHICYGYGIKANTDWKQTLGSEWRQYEESFPKLQASTIDIVSLECHNSHVPIDLIELVRGKKVMVGAIDVASNTIETPQEVADTLRKALRFVDADKLYPSTNCGMAPLARHVARGKLSALSAGADIIRAELSAQLEHHHHHH | not soluble |
| MDGIAEPVIIKDDASRFVFINDAACDLLGKDRNQLIGRTDHDILPGEQADRIVSLDRIVLSTSEGHELEEQITTPDGTQRTLLTKKRCVSIPAGSTQEKFVVVTIVDIT | not soluble |
| MGSDKIHHHHHHMKMNIPVIFQFLKDLSANNNREWFNEHRSEYEVARAEFDNFLATVIARISLFDETIRGIQPKDCTYRIYRDTRFSADKTPYKIHFGGYINAKGKKSDHCGYYVHLQPDGSMLAGGSLCLPPNVLKAVRQAIYDNVEEYISIVEDPEFKKYFPVVGEDFMKTAPKGFPKDFKYIDYLKCRQFVCSYLVPDDFFTRADMMEQIEKAFRQFKRFADFINYTIDDFE | not soluble |
| MAQWSTMSTADRDFVVRFPTGTSDPLSDAEIQQYREEIDRLDKEILAAVKRRTEISRAIGKTRMGSGGTRLVHTREVAIINQFREEIGEEGPALAGILLRMGRGRLGEAR | not soluble |
| GPGSMHSEQSICEFIHMQRELRRCYATMENYEVVIAQLRDDCALSRAQLCRFQQEHAQRGKDVEAQVRAELTEQTNARLSALRQSEASDALCLKTSAGPDRNTTDAAEEYRRDTCQATLDELRRALQEEQSAHAECLARLTEALAAKARWKSRAVELLKWRKQVCGQMYMSSTPSSSSFVAGARAIGTCGALPGVSTISNCASDSQAEPNAGNSASDVSSPSQRLYRPPSPYKPPPCVSSPSEAGKLRSSMTSEASAALPASPYEGGTGACAADKENEKDSSSTPGADISCQSDSTAVSFLSPSTTPAGRVAQALGSGVVVVWPPLAERQEMSTRKSAESSRTQSSTTAAALESGNPALLDDSGKQGLQPSPPTSSVSPGVLPSSVGRYTTSAVGSRTQAGCRLPLVGCEKAVVAAEPLRVMPDPFAFPRPPPSGGVTCTNHSLLSTSDELPTSCDVSAAMASSAAERQCNELLRALLDKEQQLALIAEERTKYKRLYEATQS | not soluble |
| MNELTKQMQQIMHPRAVLVAYECETTGYSTPRSYLELRPVNEKGRMGAGIPVTYEFMNSLVESYTESMSGIPHGRIPGNMLLCDSRKGRERYIWYNPPQKRKMYFQDGLHITDGTFNVPGVIYVVERECMDIHAFKGAIPEERTELYLAPFFNVAGANVCLGSSSPKKPQDMDFLEFQEYWEKRFWMSEFSHLGGNRNPTRSNLVSVTEHARNNPFDYSELQQSGKKLKDILA | not soluble |
| MGSDKIHHHHHHMVKLFREKKDMGSPKIQNFKRQTVLHKGQRTRLPATYIAPEDVSIWDIIRPNLGKDFSRFTVPVFMNEPLSFLQRLSENVQYNYLLEKAAKCSDDMERIEFYEFRFFFNWKKLKHQMKLSNSAHKTGFTFANSINYVAAFALATVSANHKRLSKPFNPLLLETFELERNGVRFLAEQVSHHPPISAVYAESDEFTVEGTVEPTLGFWMTKLLANPHAHLKLTFKKTGETYSWSAPKCAIYNVIMGKMYMNFTSHMKIESSGTYDAVFSFDNKGYYNHKGGDVHVEGHIFEGKNKIKALYGNWTLFLASCDNEDFKHHRKEYLRMFNETVSEKDQGPVVPGSKILWVSNQIPKLFDDQFHFTNFTLSLNEMYPGMSDTVAPTDSRRRKDMKALEDGKNDEAEEFKHKYEEEQRERRTTKTGDVPMWFAKNDEGHWAYKGGYWDRDYSNCLELFESLENSSTNSSNSSISSVD | not soluble |
| MGSDKIHHHHHHMEYNDVVEAVISALKKAHTELPEDVVTAIKKAYDSEENDIAKRNLEAILKNIEAAKKLGVPMCQDTGIPVFFVEVGRELCLDFDLKEAIVEGVRKATAEIPLRPNAVHPITRENSGDNTGLGIPQINVELVKGDELRMVVMPKGAGSENVSALKMMLPTQVDKIKDFVVETVKNAGGKPCPPIFVGVGVGSTFDGAAKLAKKALLRNVLEMNDFELELLEAVNELGIGAMGLGGKYTALAVLVEFGHCHTASLPVAVNIQCWANRRAEVVLR | not soluble |
| MGSDKIHHHHHHMKTSLGPIQYCWPKEKVVEFYEAVAQSSVPLVYLGETVCSRRRELKFSDYLALAQMLKAAGKEVVLSTLTLIEAQSEFLELKKQVENGEFTIEANDVGAIYLAKEHGIPFVCGPSINSYNAATLKKFASWGMQRFVMPLELSKAWLTQVLDDLAPRQVEVEVFGHGFMPLAHSARCFTARHKGLTKDKCQTICIENPEGLLVQTQEDQPLLRLNGIQTQSANYMDLCDQQTQMQALGVDYFRISPSSLASIALADKLPAKSASHDRQCNGYWHQLPGLALS | not soluble |
| MNEQWMSALPLDNVKDISPVSGGDVNEAFKVTTVEEDIFFLLVQRQRSEAFYAAEIAGLNEFENAGITAPRVIASGEINGDAYLLLSFLEEGSQGSQRELARLVARMHSQYQQDNKFGFRLPHEGADISFDNSWTETWKEIFINRRMDHLQDELLRVGLWKQEDKKMYERVRKVIVDELSNHTSKPSLLHGDLWGGNYMFLTNGQPALFDPAPLYGDREFDIGITTVFGGFTQEFYDEYNQQLPLAKGSQKRIEFYRLYLLMIHLLKFGGMYADSVQRSMKIILELEHHHHHH | soluble |
